Data set [1] relates to HeLa Kyoto. As to the kind of experiment: melting temperature (median over replicates), in situ; higher = more thermally stable.
Data set [2] deals with HeLa Kyoto. As to the kind of experiment: thermal stability score vs G1/S (z-score of summed log2 fold changes over temperatures); higher = more thermally stable than in G1/S.
Data set [3] relates to HeLa Kyoto. The experiment in a line: solubility change mitosis vs G1/S (difference of NP-40 vs SDS log2 ratios) (log2 ratio difference); higher = more soluble in mitosis.
Setting [4] is: cell cycle stage: early G1 (4.5 h after nocodazole release).

This note sets out measurements from the supplement of paper PMC5998384.
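Throughout, for melting temperature (median over replicates), in situ: HeLa Kyoto cells synchronized by double thymidine or nocodazole block, proteins quantified by TMT10plex mass spectrometry, three independent biological replicates.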
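Throughout, for solubility change mitosis vs G1/S (difference of NP-40 vs SDS log2 ratios): synchronized HeLa Kyoto cells (double thymidine block for G1/S, nocodazole release for mitosis), protein amounts in NP-40 versus SDS lysates quantified by mass spectrometry, three biological replicates.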
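Throughout, for thermal stability score vs G1/S (z-score of summed log2 fold changes over temperatures): synchronized HeLa Kyoto cells, proteins quantified by TMT10plex mass spectrometry, three biological replicates, mitosis taken 0.5 h after nocodazole release, G1/S directly after double thymidine block.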

For “MKSVIYHALSQKEANDSDVQPSGAQRAEAFVRAFLKRSTPRMSPQAREDQLQRKAVVLEYFTRHKRKEKKKKAKGLSARQRRELRLFDIKPEQQRYSLFLPLHELWKQYIRDLCSGLKPDTQPQMIQAKLLKADLHGAIISVTKSKCPSYVGITGILLQETKHIFKIITKEDRLKVIPKLNCVFTVETDGFISYIYGSKFQLRSSERSAKKFKAKGTIDL [POP4]”, the melting temperature with HeLa Kyoto [1] (cell cycle stage: G1/S) is 52.4 °C. Further, the thermal stability score is -1.07 in the data set with HeLa Kyoto [2] (setting [4]) and -2.15 with HeLa Kyoto [2] (cell cycle stage: mitosis).

Regarding “MLTTLLPILLLSGWAFCSQDASDGLQRLHMLQISYFRDPYHVWYQGNASLGGHLTHVLEGPDTNTTIIQLQPLQEPESWARTQSGLQSYLLQFHGLVRLVHQERTLAFPLTIRCFLGCELPPEGSRAHVFFEVAVNGSSFVSFRPERALWQADTQVTSGVVTFTLQQLNAYNRTRYELREFLEDTCVQYVQKHISAENTKGSQTSRSYTSLVLGVLVGSFIIAGVAVGIFLCTGGRRC [PROCR]”, the melting temperature stood at 59.1 °C in the data set with HeLa Kyoto [1] (cell cycle stage: G1/S) and 57.1 °C in the data set with HeLa Kyoto [1] (cell cycle stage: mitosis). The figures for the thermal stability score in the data set on HeLa Kyoto [2] (setting [4]) and in the data set with HeLa Kyoto [2] (cell cycle stage: mitosis) were 1.63 and 0.816, respectively.

With “MPSPQLLVLFGSQTGTAQDVSERLGREARRRRLGCRVQALDSYPVVNLINEPLVIFVCATTGQGDPPDNMKNFWRFIFRKNLPSTALCQMDFAVLGLGDSSYAKFNFVAKKLHRRLLQLGGSALLPVCLGDDQHELGPDAAVDPWLRDLWDRVLGLYPPPPGLTEIPPGVPLPSKFTLLFLQEAPSTGSEGQRVAHPGSQEPPSESKPFLAPMISNQRVTGPSHFQDVRLIEFDILGSGISFAAGDVVLIQPSNSAAHVQRFCQVLGLDPDQLFMLQPREPDVSSPTRLPQPCSMRHLVSHYLDIASVPRRSFFELLACLSLHELEREKLLEFSSAQGQEELFEYCNRPRRTILEVLCDFPHTAAAIPPDYLLDLIPVIRPRAFSIASSLLTHPSRLQILVAVVQFQTRLKEPRRGLCSSWLASLDPGQGPVRVPLWVRPGSLAFPETPDTPVIMVGPGTGVAPFRAAIQERVAQGQTGNFLFFGCRWRDQDFYWEAEWQELEKRDCLTLIPAFSREQEQKVYVQHRLRELGSLVWELLDRQGAYFYLAGNAKSMPADVSEALMSIFQEEGGLCSPDAAAYLARLQQTRRFQTETWA [NDOR1]”, the melting temperature in the data set with HeLa Kyoto [1] (cell cycle stage: G1/S) was 52.6 °C. In addition, the figures for the thermal stability score with HeLa Kyoto [2] (setting [4]) and in the data set with HeLa Kyoto [2] (cell cycle stage: mitosis) were -0.788 and -0.432, respectively.

MRPL3: in the data set with HeLa Kyoto [3], the “solubility change mitosis (log2)” value was -0.0054.

As to MRPL4, in the data set with HeLa Kyoto [3], the “solubility change mitosis (log2)” value is -0.11.

MRPL18: the “solubility change mitosis (log2)” value with HeLa Kyoto [3] amounted to 0.126.

With MRPL35, the “solubility change mitosis (log2)” value in the data set with HeLa Kyoto [3] turned out to be 0.149.

With MRPL40, the “solubility change mitosis (log2)” value in the data set with HeLa Kyoto [3] was determined as 0.188.

Turning to MRPL46, the “solubility change mitosis (log2)” value in the data set on HeLa Kyoto [3] is 0.212.

For the substance “MSEGDSVGESVHGKPSVVYRFFTRLGQIYQSWLDKSTPYTAVRWVVTLGLSFVYMIRVYLLQGWYIVTYALGIYHLNLFIAFLSPKVDPSLMEDSDDGPSLPTKQNEEFRPFIRRLPEFKFWHAATKGILVAMVCTFFDAFNVPVFWPILVMYFIMLFCITMKRQIKHMIKYRYIPFTHGKRRYRGKEDAGKAFAS [RER1]”, the melting temperature in the data set on HeLa Kyoto [1] (cell cycle stage: G1/S) was determined as 55.1 °C; with HeLa Kyoto [1] (cell cycle stage: mitosis), 55.5 °C. For the same substance, the values for the thermal stability score with HeLa Kyoto [2] (setting [4]) and with HeLa Kyoto [2] (cell cycle stage: mitosis) were -0.257 and -1.81, respectively.

Regarding “MSEKSVEAAAELSAKDLKEKKEKVEEKASRKERKKEVVEEEENGAEEEEEETAEDGEEEDEGEEEDEEEEEEDDEGPALKRAAEEEDEADPKRQKTENGASA [PTMS]”, the melting temperature stood at 55.5 °C in the data set with HeLa Kyoto [1] (cell cycle stage: G1/S) and 51.9 °C in the data set with HeLa Kyoto [1] (cell cycle stage: mitosis). In addition, the thermal stability score was -1.16 with HeLa Kyoto [2] (setting [4]) and -2.62 in the data set on HeLa Kyoto [2] (cell cycle stage: mitosis).

Consider “MSRLLPLLRSRTARSLRPGPAAAAAPRPPSWCCCGRGLLALAPPGGLPGGPRRLGTHPKKEPMEALNTAQGARDFIYSLHSTERSCLLKELHRFESIAIAQEKLEAPPPTPGQLRYVFIHNAIPFIGFGFLDNAIMIVAGTHIEMSIGIILGISTMAAAALGNLVSDLAGLGLAGYVEALASRLGLSIPDLTPKQVDMWQTRLSTHLGKAVGVTIGCILGMFPLIFFGGGEEDEKLETKS [TMEM65]”, for which the melting temperature came to 55.5 °C in the data set with HeLa Kyoto [1] (cell cycle stage: G1/S) and 55.9 °C in the data set on HeLa Kyoto [1] (cell cycle stage: mitosis). Also, the thermal stability score in the data set with HeLa Kyoto [2] (setting [4]) was determined as 0.563; in the data set on HeLa Kyoto [2] (cell cycle stage: mitosis) it was 0.332.

Take “MTSALENYINRTVAVITSDGRMIVGTLKGFDQTINLILDESHERVFSSSQGVEQVVLGLYIVRGDNVAVIGEIDEETDSALDLGNIRAEPLNSVAH [LSM8]”: the melting temperature in the data set with HeLa Kyoto [1] (cell cycle stage: G1/S) came out at 57.1 °C; with HeLa Kyoto [1] (cell cycle stage: mitosis), 57.5 °C. For the same substance, the results for the thermal stability score in the data set with HeLa Kyoto [2] (setting [4]) and in the data set with HeLa Kyoto [2] (cell cycle stage: mitosis) were -1.46 and -3.54, respectively.

As for “MVAPVWYLVAAALLVGFILFLTRSRGRAASAGQEPLHNEELAGAGRVAQPGPLEPEEPRAGGRPRRRRDLGSRLQAQRRAQRVAWAEADENEEEAVILAQEEEGVEKPAETHLSGKIGAKKLRKLEEKQARKAQREAEEAEREERKRLESQREAEWKKEEERLRLEEEQKEEEERKAREEQAQREHEEYLKLKEAFVVEEEGVGETMTEEQSQSFLTEFINYIKQSKVVLLEDLASQVGLRTQDTINRIQDLLAEGTITGVIDDRGKFIYITPEELAAVANFIRQRGRVSIAELAQASNSLIAWGRESPAQAPA [DDRGK1]”, the melting temperature in the data set on HeLa Kyoto [1] (cell cycle stage: G1/S) and with HeLa Kyoto [1] (cell cycle stage: mitosis) was 52.9 °C each time. For the same substance, the thermal stability score is -0.767 in the data set with HeLa Kyoto [2] (setting [4]) and -0.701 in the data set with HeLa Kyoto [2] (cell cycle stage: mitosis).

With “MVPGAAGWCCLVLWLPACVAAHGFRIHDYLYFQVLSPGDIRYIFTATPAKDFGGIFHTRYEQIHLVPAEPPEACGELSNGFFIQDQIALVERGGCSFLSKTRVVQEHGGRAVIISDNAVDNDSFYVEMIQDSTQRTADIPALFLLGRDGYMIRRSLEQHGLPWAIISIPVNVTSIPTFELLQPPWTFW [PRADC1]”, the melting temperature in the data set with HeLa Kyoto [1] (cell cycle stage: G1/S) was 53.8 °C; with HeLa Kyoto [1] (cell cycle stage: mitosis), 52.7 °C. Further, the thermal stability score with HeLa Kyoto [2] (setting [4]) is -2.33; in the data set on HeLa Kyoto [2] (cell cycle stage: mitosis), -2.03.

“MWRWIRQQLGFDPPHQSDTRTIYVANRFPQNGLYTPQKFIDNRIISSKYTVWNFVPKNLFEQFRRVANFYFLIIFLVQLMIDTPTSPVTSGLPLFFVITVTAIKQGYEDWLRHNSDNEVNGAPVYVVRSGGLVKTRSKNIRVGDIVRIAKDEIFPADLVLLSSDRLDGSCHVTTASLDGETNLKTHVAVPETALLQTVANLDTLVAVIECQQPEADLYRFMGRMIITQQMEEIVRPLGPESLLLRGARLKNTKEIFGVAVYTGMETKMALNYKSKSQKRSAVEKSMNTFLIIYLVILISEAVISTILKYTWQAEEKWDEPWYNQKTEHQRNSSKILRFISDFLAFLVLYNFIIPISLYVTVEMQKFLGSFFIGWDLDLYHEESDQKAQVNTSDLNEELGQVEYVFTDKTGTLTENEMQFRECSINGMKYQEINGRLVPEGPTPDSSEGNLSYLSSLSHLNNLSHLTTSSSFRTSPENETELIKEHDLFFKAVSLCHTVQISNVQTDCTGDGPWQSNLAPSQLEYYASSPDEKALVEAAARIGIVFIGNSEETMEVKTLGKLERYKLLHILEFDSDRRRMSVIVQAPSGEKLLFAKGAESSILPKCIGGEIEKTRIHVDEFALKGLRTLCIAYRKFTSKEYEEIDKRIFEARTALQQREEKLAAVFQFIEKDLILLGATAVEDRLQDKVRETIEALRMAGIKVWVLTGDKHETAVSVSLSCGHFHRTMNILELINQKSDSECAEQLRQLARRITEDHVIQHGLVVDGTSLSLALREHEKLFMEVCRNCSAVLCCRMAPLQKAKVIRLIKISPEKPITLAVGDGANDVSMIQEAHVGIGIMGKEGRQAARNSDYAIARFKFLSKLLFVHGHFYYIRIATLVQYFFYKNVCFITPQFLYQFYCLFSQQTLYDSVYLTLYNICFTSLPILIYSLLEQHVDPHVLQNKPTLYRDISKNRLLSIKTFLYWTILGFSHAFIFFFGSYLLIGKDTSLLGNGQMFGNWTFGTLVFTVMVITVTVKMALETHFWTWINHLVTWGSIIFYFVFSLFYGGILWPFLGSQNMYFVFIQLLSSGSAWFAIILMVVTCLFLDIIKKVFDRHLHPTSTEKAQLTETNAGIKCLDSMCCFPEGEAACASVGRMLERVIGRCSPTHISRSWSASDPFYTNDRSILTLSTMDSSTC [ATP11B]”: the melting temperature turned out to be 57.4 °C in the data set on HeLa Kyoto [1] (cell cycle stage: G1/S) and 55.5 °C with HeLa Kyoto [1] (cell cycle stage: mitosis). Moreover, the thermal stability score was -2.25 with HeLa Kyoto [2] (setting [4]) and -0.924 in the data set with HeLa Kyoto [2] (cell cycle stage: mitosis).
